This is an account of results in publication PMC8951016, “Computational Design and Biological Evaluation of Analogs of Lupin Peptide P5 Endowed with Dual PCSK9/HMG-CoAR Inhibiting Activity” (Pharmaceutics, 2022).

The IC50 is the concentration needed to halve the response being measured.

The target in one assay is T1, PCSK9-LDLR (Homo sapiens, UniProt Q8NBP7).
T1 construct: purchased CycLex Co., Nagano, Japan (CircuLex)
The settings on record: parent peptide; read-out: IC50, PCSK9-LDLR binding (P5); cited from earlier work.

The test system of another assay is PCSK9. Put plainly: Western blot, PCSK9 protein level in HepG2. It counts as cell-based, human. The conditions noted are these: active at 50 µM in hepatic cells vs 250 µM; PCSK9 protein level and secretion. How it is done: A total of 1.5 × 10^5 HepG2 cells/well (24-well plate) were treated with 50 μM of P5 and P5 analogs for 24 h. Immunoblotting experiments were performed using optimized protocol. See Supplementary Materials for further details.
PBS for 1.5 h at RT. LDLR primary antibody solution (1:3000 in 5% BSA in PBS, 25 µL/well) was incubated O/N at +4 °C. Subsequently, the primary antibody solution was discarded and each sample was washed 5 times with 100 µL/well of PBS (each wash was for 5 min at RT). Goat anti-rabbit Ig-HRP secondary antibody solution (Santa Cruz) (1:6000 in 5% BSA in PBS, 50 µL/well), was added and incubated 1 h at RT. […] The reaction was stopped with 2 M H2SO4 and then the absorbance at 450 nm was measured using the microplate reader Synergy H1 (Winoo-ski, VT, USA). After the read, cells were stained by adding 1 X Janus Green stain, incubat-ing for 5 min at RT. […]
Afterward 100 µL 0.5 M HCl for well were added and incubated for 10 min. After 10 sec-onds shaking, the OD at 595 nm was measured using the microplate reader Synergy H1 […]
Fluorescent LDL Uptake. […] The degree of LDL uptake was measured using the Synergy H1 fluo-rescent plate reader (Winooski, VT, USA) (excitation and emission wavelengths 540 and 570 nm, respectively). Fluorescent LDL-uptake was finally assessed following optimized […]

T1 sequence (Q8NBP7 153-692): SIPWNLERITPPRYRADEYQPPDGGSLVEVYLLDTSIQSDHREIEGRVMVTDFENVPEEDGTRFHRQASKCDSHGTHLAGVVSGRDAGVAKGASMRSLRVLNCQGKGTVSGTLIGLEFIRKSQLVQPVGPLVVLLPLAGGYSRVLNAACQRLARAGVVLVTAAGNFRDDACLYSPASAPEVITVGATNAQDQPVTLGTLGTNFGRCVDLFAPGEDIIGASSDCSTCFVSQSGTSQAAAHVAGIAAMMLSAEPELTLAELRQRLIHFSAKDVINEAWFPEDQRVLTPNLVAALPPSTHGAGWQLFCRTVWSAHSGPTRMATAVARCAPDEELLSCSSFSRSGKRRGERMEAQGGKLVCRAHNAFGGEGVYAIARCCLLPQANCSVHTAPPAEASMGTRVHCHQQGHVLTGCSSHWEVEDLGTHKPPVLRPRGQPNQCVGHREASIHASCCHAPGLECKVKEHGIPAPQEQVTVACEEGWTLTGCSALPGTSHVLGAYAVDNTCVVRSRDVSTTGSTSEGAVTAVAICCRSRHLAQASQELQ
T1 sequence (Q8NBP7 31-152 partner limits assumed): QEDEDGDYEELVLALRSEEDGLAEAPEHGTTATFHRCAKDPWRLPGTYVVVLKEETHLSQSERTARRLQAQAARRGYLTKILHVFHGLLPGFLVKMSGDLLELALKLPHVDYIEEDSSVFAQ

Consider “LILPKHSDAD [Peptide P5, natural peptide derived from a peptic lupin protein hydrolysate]”, for which the IC50 with PCSK9-LDLR is 1600 nM. The “fold potency vs YVVNPDNNEN” value in the assay with PCSK9 is given as 5 -fold.
